Like-named read-outs stand apart in the source and are kept apart here. Each block holds one molecule with its values, some of them ahead of it.
How the values were obtained:
[1] = molecular target: secPHEX (soluble, secreted form of recombinant human PHEX) (human) (UniProt P78562); experiment: cell-based or functional assay
PTHrP107-139 (human) [2] = tested on: T1, PTHrP107-139 (human)
T1 sequence: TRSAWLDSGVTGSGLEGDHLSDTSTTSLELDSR

PTHrP107-139 (human) [3] = molecular target: T2, PTHrP107-139 (human)
T2 chain: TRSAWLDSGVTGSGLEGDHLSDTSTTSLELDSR

50% inhibition of secPHEX-mediated PTHrP107-139 hydrolysis (HPLC) [1]: 3.6 µM
inhibition of secPHEX activity at 5×10^-6 M osteocalcin [1]: 75%
Molecule: osteocalcin (human, extracted from bones, with Gla residues) (from UniProt P02818 52-100)

Molecule: secPHEX (soluble, secreted form of recombinant human PHEX)
degradation of PTHrP107-139 (HPLC) (PTHrP107-139 (human) [2]): approximately 75 to 80% degradation of the peptide was observed

B1: secPHEXE581V (inactive soluble human PHEX with Glu 581 replaced by Val) (protein)
chain: QGLLSLQAKQEYCLKPECIEAAAAILSKVNLSVDPCDNFFRFACDGWISNNPIPEDMPSYGVYPWLRHNVDLKLKELLEKSISRRRDTEAIQKAKILYSSCMNEKAIEKADAKPLLHILRHSPFRWPVLESNIGPEGVWSERKFSLLQTLATFRGQYSNSVFIRLYVSPDDKASNEHILKLDQATLSLAVREDYLDNSTEAKSYRDALYKFMVDTAVLLGANSSRAEHDMKSVLRLEIKIAEIMIPHENRTSEAMYNKMNISELSAMIPQFDWLGYIKKVIDTRLYPHLKDISPSENVVVRVPQYFKDLFRILGSERKKTIANYLVWRMVYSRIPNLSRRFQYRWLEFSRVIQGTTTLLPQWDKCVNFIESALPYVVGKMFVDVYFQEDKKEMMEELVEGVRWAFIDMLEKENEWMDAGTKRKAKEKARAVLAKVGYPEFIMNDTHVNEDLKAIKFSEADYFGNVLQTRKYLAQSDFFWLRKAVPKTEWFTNPTTVNAFYSASTNQIRFPAGELQKPFFWGTEYPRSLSYGAIGVIVGHVFTHGFDNNGRKYDKNGNLDPWWSTESEEKFKEKTKCMINQYSNYYWKKAGLNVKGKRTLG
degradation of PTHrP107-139 (HPLC) (PTHrP107-139 (human) [3]): purified secPHEXE581V failed to degrade PTHrP107-139 under similar conditions

— patent publication US20050069569A1
